Kd, koff and kon data for 13 molecules are collected here from US20220204613A1 (D 10 THERAPEUTICS, published 2022).

In general, Kd refers to the equilibrium constant for the complex coming apart. The low end stands for a tighter complex, the high end for a looser complex. As usually defined, the koff is the first-order rate constant of dissociation. Lower therefore signals slow dissociation. The term kon denotes the rate constant with which the complex forms. The low end stands for slow association, the high end for fast association.

Where a chain is given by its changes, count along the chain named. Names and notes keep the numbering of the source.

B1: VH2+VL2 (antibody, human IgG4 S228P, kappa, V domains shown)
VH: QVQLVQSGAEVKKPGASVKVSCKASGYTFTSSVIHWVRQAPGQGLEWLGYINPYSDGTKFNEKCKIRATMTSDTSISTAYMELSRLRSDDTAVYYCARGLIGTRYDSWFAYWGQGTLVTVSS
VL: DIQMTQSPSSLSASVGDRVTITCRTSQDINNYLNWYQQKPGKAVKLLIYYTSRLHSGVPSRFSGSGSGTDFTFTISSLQPEDIATYFCQQGNTLPYTFGGGTKVEIKR
notes: Humanized IgG, hIgG4 CH (S228P) and human kappa CL; leader residues 1-19 of each entry left out; Tested from supernatant; also called U0959FD090-VH2 + U0959FD090-VL2
B2: VH3+VL2 (antibody, human IgG4 S228P, kappa, V domains shown)
VH: B1 VH with R38K, A68V, M70L
VL: B1 VL
notes: Humanized IgG, hIgG4 CH (S228P) and human kappa CL; leader residues 1-19 of each entry left out; Tested from supernatant; also called U0959FD090-VH3 + U0959FD090-VL2
B3: VH2+VL3 (antibody, human IgG4 S228P, kappa, V domains shown)
VH: B1 VH
VL: B1 VL with F71Y
notes: Humanized IgG, hIgG4 CH (S228P) and human kappa CL; leader residues 1-19 of each entry left out; Tested from supernatant; also called U0959FD090-VH2 + U0959FD090-VL3
B4: VH4+VL1 (antibody, human IgG4 S228P, kappa, V domains shown)
VH: B1 VH with R38K, T74K
VL: B1 VL with V44P, F87Y
notes: Humanized IgG, hIgG4 CH (S228P) and human kappa CL; leader residues 1-19 of each entry left out; Tested from supernatant; also called U0959FD090-VH4 + U0959FD090-VL1
B5: VH1+VL2 (antibody, human IgG4 S228P, kappa, V domains shown)
VH: B1 VH with L48M, A68V, S72R
VL: B1 VL
notes: Humanized IgG, hIgG4 CH (S228P) and human kappa CL; leader residues 1-19 of each entry left out; Tested from supernatant; also called U0959FD090-VH1 + U0959FD090-VL2
B6: VH2+VL1 (antibody, human IgG4 S228P, kappa, V domains shown)
VH: B1 VH
VL: B1 VL with V44P, F87Y
notes: Humanized IgG, hIgG4 CH (S228P) and human kappa CL; leader residues 1-19 of each entry left out; Tested from supernatant; also called U0959FD090-VH2 + U0959FD090-VL1
B7: VH1+VL1 (antibody, human IgG4 S228P, kappa, V domains shown)
VH: B1 VH with L48M, A68V, S72R
VL: B1 VL with V44P, F87Y
notes: Humanized IgG, hIgG4 CH (S228P) and human kappa CL; Tested from supernatant; also called U0959FD090-VH1 + U0959FD090-VL1
B8: VH1+VL4 (antibody, human IgG4 S228P, kappa, V domains shown)
VH: B1 VH with L48M, A68V, S72R
VL: B1 VL with T22S, A43T, F71Y
notes: Humanized IgG, hIgG4 CH (S228P) and human kappa CL; leader residues 1-19 of each entry left out; Tested from supernatant; also called U0959FD090-VH1 + U0959FD090-VL4
B9: VH3+VL4 (antibody, human IgG4 S228P, kappa, V domains shown)
VH: B1 VH with R38K, A68V, M70L
VL: B1 VL with T22S, A43T, F71Y
notes: Humanized IgG, hIgG4 CH (S228P) and human kappa CL; leader residues 1-19 of each entry left out; Tested from supernatant; also called U0959FD090-VH3 + U0959FD090-VL4
B10: VH1+VL3 (antibody, human IgG4 S228P, kappa, V domains shown)
VH: B1 VH with L48M, A68V, S72R
VL: B1 VL with F71Y
notes: Humanized IgG, hIgG4 CH (S228P) and human kappa CL; leader residues 1-19 of each entry left out; Tested from supernatant; also called U0959FD090-VH1 + U0959FD090-VL3
B11: VH2+VL4 (antibody, human IgG4 S228P, kappa, V domains shown)
VH: B1 VH
VL: B1 VL with T22S, A43T, F71Y
notes: Humanized IgG, hIgG4 CH (S228P) and human kappa CL; leader residues 1-19 of each entry left out; Tested from supernatant; also called U0959FD090-VH2 + U0959FD090-VL4
B12: VH3+VL1 (antibody, human IgG4 S228P, kappa, V domains shown)
VH: B1 VH with R38K, A68V, M70L
VL: B1 VL with V44P, F87Y
notes: Humanized IgG, hIgG4 CH (S228P) and human kappa CL; leader residues 1-19 of each entry left out; Tested from supernatant; also called U0959FD090-VH3 + U0959FD090-VL1
B13: VH3+VL3 (antibody, human IgG4 S228P, kappa, V domains shown)
VH: B1 VH with R38K, A68V, M70L
VL: B1 VL with F71Y
notes: Humanized IgG, hIgG4 CH (S228P) and human kappa CL; leader residues 1-19 of each entry left out; Tested from supernatant; also called U0959FD090-VH3 + U0959FD090-VL3

T1 sequence (Q08722 19-139 limits assumed): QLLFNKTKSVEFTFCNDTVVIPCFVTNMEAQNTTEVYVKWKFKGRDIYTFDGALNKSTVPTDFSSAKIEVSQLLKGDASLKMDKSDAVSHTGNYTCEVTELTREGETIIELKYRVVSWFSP

This assay has as its target T1, human CD47 protein (human, UniProt Q08722 19-139, limits assumed).
T1 construct: also called human CD47 antigen
The assay can be described thus: SPR Biacore, supernatant antibody Fc-captured, human CD47 analyte 5 nM. The procedure: Production and affinity ranking of humanized antibodies. The designed plasmids of heavy chain and light chain were sent for 3 mL transfection following GenScript's SOP. For affinity ranking, Antibodies were captured on the sensor chip through Fc capture method. Human CD47 protein was used as the analyte. The surface was regenerated before the injection of another antibody. The process was repeated until all antibodies were analyzed. The off-rates of antibodies were obtained from fitting the experimental data locally to 1:1 interaction model using the Biacore® T200/8K evaluation software. The antibodies were ranked by their dissociation rate constants (off-rates, kd).
In the case of B1, the affinity, expressed as Kd, was 0.698 nM; the koff worked out at 0.00413 s⁻¹; the kon was 5.92e+06 M⁻¹ s⁻¹.

Take B2: the Kd was 0.638 nM, the koff came to 0.00378 s⁻¹ and the kon was found to be 5.93e+06 M⁻¹ s⁻¹.

On to B3, for which the Kd was determined as 0.597 nM, the koff stood at 0.00348 s⁻¹ and the kon was 5.83e+06 M⁻¹ s⁻¹.

In turn, B4 displayed a Kd of 0.839 nM, a koff of 0.005 s⁻¹ and a kon of 5.96e+06 M⁻¹ s⁻¹.

B5 returned a Kd of 0.368 nM, a koff of 0.00159 s⁻¹ and a kon of 4.32e+06 M⁻¹ s⁻¹.

In turn, B6 registered a dissociation constant Kd of 1 nM, a koff of 0.00648 s⁻¹ and a kon of 6.47e+06 M⁻¹ s⁻¹.

As to B7, the Kd was 0.412 nM, the koff worked out at 0.0021 s⁻¹ and the kon turned out to be 5.1e+06 M⁻¹ s⁻¹.

B8 showed a Kd of 0.266 nM, a koff of 0.00128 s⁻¹ and a kon of 4.8e+06 M⁻¹ s⁻¹.

In turn, B9 returned a Kd of 0.555 nM, a koff of 0.00305 s⁻¹ and a kon of 5.49e+06 M⁻¹ s⁻¹.

On to B10, for which the affinity, expressed as Kd, was 0.274 nM; the koff was 0.00137 s⁻¹; the kon turned out to be 5e+06 M⁻¹ s⁻¹.

On to B11, for which binding was characterised by a dissociation constant (Kd) of 0.585 nM, the koff is 0.00332 s⁻¹ and the kon came out at 5.67e+06 M⁻¹ s⁻¹.

For the molecule B12, the Kd worked out at 0.803 nM, the koff was found to be 0.00553 s⁻¹ and the kon is 6.89e+06 M⁻¹ s⁻¹.

B13 came in with a Kd of 0.602 nM, a koff of 0.00312 s⁻¹ and an on-rate constant (kon) of 5.18e+06 M⁻¹ s⁻¹.
